Assay results as given in EP1852441B1 (The Burnham Institute, dated 2004).
Where no end group is shown, it is not given here.

Assays:
[1] = biological target: T1, histidine-tagged mouse EphA2 Fc fusion protein (mouse, UniProt Q03145 26-535, limits assumed); test: SPR (BIAcore 3000), EphA2 Fc coupled to the chip, equilibrium binding
T1 construct: Bought; also called Eph2 Fc; not shown: Fc region; histidine tag

EphB4 Fc = biological target: T2, EphB4 Fc; test: immobilized biotinylated peptide capturing Eph receptor Fc
T2 construct: also called EpbB4
T2 sequence (P54761 16-539): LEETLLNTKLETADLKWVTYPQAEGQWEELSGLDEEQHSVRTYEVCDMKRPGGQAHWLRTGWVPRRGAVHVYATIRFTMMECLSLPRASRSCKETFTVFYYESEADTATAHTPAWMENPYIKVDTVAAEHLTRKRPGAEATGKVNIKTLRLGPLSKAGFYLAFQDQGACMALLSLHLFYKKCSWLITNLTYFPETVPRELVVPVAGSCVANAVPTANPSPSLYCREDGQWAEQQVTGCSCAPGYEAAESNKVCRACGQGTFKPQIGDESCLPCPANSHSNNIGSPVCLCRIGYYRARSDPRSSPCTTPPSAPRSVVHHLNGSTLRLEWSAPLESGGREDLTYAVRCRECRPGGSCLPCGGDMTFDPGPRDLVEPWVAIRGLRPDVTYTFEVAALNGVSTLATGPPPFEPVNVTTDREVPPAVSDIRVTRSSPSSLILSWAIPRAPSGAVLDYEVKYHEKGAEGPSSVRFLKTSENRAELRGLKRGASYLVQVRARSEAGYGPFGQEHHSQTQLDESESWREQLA

T1 sequence (Q03145 26-535 limits assumed): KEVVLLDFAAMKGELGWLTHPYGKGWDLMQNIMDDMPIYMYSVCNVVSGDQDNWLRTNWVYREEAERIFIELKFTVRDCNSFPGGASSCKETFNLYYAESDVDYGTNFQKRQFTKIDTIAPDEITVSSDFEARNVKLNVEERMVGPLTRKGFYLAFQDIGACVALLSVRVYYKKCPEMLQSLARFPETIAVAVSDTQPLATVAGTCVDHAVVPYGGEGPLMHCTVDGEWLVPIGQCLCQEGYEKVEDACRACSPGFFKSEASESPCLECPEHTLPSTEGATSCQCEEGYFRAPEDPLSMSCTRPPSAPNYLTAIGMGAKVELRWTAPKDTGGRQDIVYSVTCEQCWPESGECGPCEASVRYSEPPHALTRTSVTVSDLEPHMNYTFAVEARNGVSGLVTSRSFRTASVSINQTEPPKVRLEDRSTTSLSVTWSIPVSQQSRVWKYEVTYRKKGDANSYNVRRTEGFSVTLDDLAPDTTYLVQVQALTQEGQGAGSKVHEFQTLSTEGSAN

Kd [1] [nM]	fold more EphB4 bound than other EphB family receptors (EphB4 Fc) [fold]	Binder
678		SWLAYPGAVSYRGSGSK (also: biotinylated (position not given here)) [synthetic SWL peptide (SWLAYPGAVSYR)]
	4	DALNDWLLFRPWGSGSK (also: biotinylated (position not given here)) [synthetic DAL peptide (DALNDWLLFRPW)]
